The labels stand for the following.
B1: TRIM35 (parent)
chain: WEVQVSPTCPVCKDRASPADLRTN
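Further: lentivirally expressed fusions sorted by FACS into six bins by GFP to DsRed ratio, PSI derived from sequencing read proportions per bin multiplied by bin number.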

Variants of B1 are the subject of the series. Put plainly: protein stability index of a GFP-peptide fusion (GPS, HEK-293T) (PSI 1-6); higher = more stable. The following applies: c terminus: a fixed tail appended.
Take WEVQYSPTCPVCKDRASPADLRTN [V5Y]: the protein stability index is 2.58.

On to WEVQSSPTCPVCKDRASPADLRTN [V5S], for which the protein stability index amounted to 2.94.

With WEVQNSPTCPVCKDRASPADLRTN [V5N], the protein stability index turned out to be 2.71.

On to WEVQLSPTCPVCKDRASPADLRTN [V5L], for which the protein stability index was 2.29.

Take WEVQDSPTCPVCKDRASPADLRTN [V5D]: the protein stability index came to 4.04.

On to WEVYVSPTCPVCKDRASPADLRTN [Q4Y], for which the protein stability index came out at 3.38.

On to WEVEVSPTCPVCKDRASPADLRTN [Q4E], for which the protein stability index was 2.08.

Turning to WEVWVSPTCPVCKDRASPADLRTN [Q4W], the protein stability index worked out at 1.48.

Take WEVQVSPTCPVCKDRASPADFRTN [L21F]: the protein stability index is 2.

WEVQVSPTCPVCKDRASPADVRTN [L21V]: the protein stability index worked out at 3.33.

In the case of WEVQVSPTCPVCKDRASPADNRTN [L21N], the protein stability index stood at 3.21.

WEVQVSPTCPVCKDRASPADGRTN [L21G]: the protein stability index came to 2.04.

Regarding WEVQVSPTCPVCKDRASPADKRTN [L21K], the protein stability index is 3.15.

WEVQVSPTCPVCKDRASPADCRTN [L21C]: the protein stability index was determined as 3.26.

On to WEVQVSPTCPVCKDRASPADMRTN [L21M], for which the protein stability index was found to be 2.13.

Consider WEVQVSPICPVCKDRASPADLRTN [T8I], for which the protein stability index worked out at 2.

Consider WEVQVSPNCPVCKDRASPADLRTN [T8N], for which the protein stability index turned out to be 2.79.

As to WEVQVSPECPVCKDRASPADLRTN [T8E], the protein stability index came to 3.07.

For the variant WEVQVSPDCPVCKDRASPADLRTN [T8D], the protein stability index was determined as 3.42.

Turning to WEVQVSPKCPVCKDRASPADLRTN [T8K], the protein stability index worked out at 2.39.

For the variant WEVQVSWTCPVCKDRASPADLRTN [P7W], the protein stability index is 2.58.

For WEVQVSNTCPVCKDRASPADLRTN [P7N], the protein stability index was found to be 1.8.

Consider WEVQVSQTCPVCKDRASPADLRTN [P7Q], for which the protein stability index is 2.43.

Regarding WEVQVSRTCPVCKDRASPADLRTN [P7R], the protein stability index turned out to be 2.19.

As for WEVQVSHTCPVCKDRASPADLRTN [P7H], the protein stability index turned out to be 2.2.

Take WEVQVSITCPVCKDRASPADLRTN [P7I]: the protein stability index worked out at 1.97.

As to WEVQVSTTCPVCKDRASPADLRTN [P7T], the protein stability index came out at 1.58.

On to WEVQVSMTCPVCKDRASPADLRTN [P7M], for which the protein stability index was found to be 1.33.

WEVQVSYTCPVCKDRASPADLRTN [P7Y]: the protein stability index was 2.31.

Turning to WEVQVSPTCPVCKDRASPADLRTV [N24V], the protein stability index is 1.19.

WEVQVSPTCPVCKDRASPADLRTM [N24M]: the protein stability index amounted to 1.55.

With WEVQVSPTCPVCKDRASPADLRTD [N24D], the protein stability index was 3.14.

With WEVQVSPTCPVCKDRASPADLRTR [N24R], the protein stability index stood at 2.74.

As to WEVQVSPTCPVCKDRASPADLRTA [N24A], the protein stability index is 2.29.

As for WEVQVSPTCPVCKDRASPADLRTP [N24P], the protein stability index was 2.47.

WEVQVSPTCPKCKDRASPADLRTN [V11K]: the protein stability index is 3.7.

For the variant WEVQVSPTCPCCKDRASPADLRTN [V11C], the protein stability index stood at 1.68.

Turning to WEVQVSPTCPHCKDRASPADLRTN [V11H], the protein stability index came to 1.96.

For WEVQVSPTCPACKDRASPADLRTN [V11A], the protein stability index was found to be 2.37.

Consider WEVQVSPTCPWCKDRASPADLRTN [V11W], for which the protein stability index turned out to be 2.88.

With WEVQVSPTCPFCKDRASPADLRTN [V11F], the protein stability index worked out at 1.78.

As to WEVQVSPTCPQCKDRASPADLRTN [V11Q], the protein stability index was determined as 2.3.

For WEVQVSPTCPLCKDRASPADLRTN [V11L], the protein stability index was 1.9.

In the case of WEVQVSPTCPVCKDRHSPADLRTN [A16H], the protein stability index came to 2.71.

WEVQVSPTCPVCKDRPSPADLRTN [A16P]: the protein stability index came out at 2.29.

As for WEVQVSPTCPVCKDRCSPADLRTN [A16C], the protein stability index stood at 1.41.

With WEVQVSPTCPVCKDRKSPADLRTN [A16K], the protein stability index came out at 2.8.

Take WEVQVSPTCPVCKDRQSPADLRTN [A16Q]: the protein stability index amounted to 2.96.

Consider WEVQVSPTCPVCKDRNSPADLRTN [A16N], for which the protein stability index is 1.84.

As for WEVQVSPTCPVCKDRYSPADLRTN [A16Y], the protein stability index was 2.08.

On to WEVQVSPTDPVCKDRASPADLRTN [C9D], for which the protein stability index came out at 4.9.

With WEVQVSPTWPVCKDRASPADLRTN [C9W], the protein stability index was found to be 2.52.

WEVQVSPTNPVCKDRASPADLRTN [C9N]: the protein stability index worked out at 4.34.

Turning to WEVQVSPTPPVCKDRASPADLRTN [C9P], the protein stability index worked out at 3.11.

Turning to WEVQVSPTVPVCKDRASPADLRTN [C9V], the protein stability index was determined as 4.11.

For WEVQVSPTFPVCKDRASPADLRTN [C9F], the protein stability index stood at 2.85.

WEVQVSPTCPVCKDRASKADLRTN [P18K]: the protein stability index was determined as 2.52.

In the case of WEVQVSPTCPVCKDRASHADLRTN [P18H], the protein stability index came to 1.6.

For the variant WEVQVSPTCPVCKDRASIADLRTN [P18I], the protein stability index worked out at 2.87.

For the variant WEVQVSPTCPVCKDRASFADLRTN [P18F], the protein stability index is 1.95.

In the case of WEVQVSPTCPVCKDRASRADLRTN [P18R], the protein stability index is 3.2.

Regarding WEVQVSPTCPVCKDRASAADLRTN [P18A], the protein stability index came to 2.04.

For WEFQVSPTCPVCKDRASPADLRTN [V3F], the protein stability index was found to be 2.39.

As to WELQVSPTCPVCKDRASPADLRTN [V3L], the protein stability index stood at 2.55.

Regarding WEGQVSPTCPVCKDRASPADLRTN [V3G], the protein stability index came to 2.29.

WEIQVSPTCPVCKDRASPADLRTN [V3I]: the protein stability index was 2.89.

As for WEMQVSPTCPVCKDRASPADLRTN [V3M], the protein stability index was found to be 2.79.

With WETQVSPTCPVCKDRASPADLRTN [V3T], the protein stability index came out at 3.5.

As for WEKQVSPTCPVCKDRASPADLRTN [V3K], the protein stability index is 2.83.

With WEVQVSPTCPVCDDRASPADLRTN [K13D], the protein stability index turned out to be 2.

As to WEVQVSPTCPVCLDRASPADLRTN [K13L], the protein stability index was determined as 3.25.

On to WEVQVSPTCPVCYDRASPADLRTN [K13Y], for which the protein stability index turned out to be 2.05.

Take WEVQVSPTCPVCRDRASPADLRTN [K13R]: the protein stability index came out at 1.46.

Take WEVQVSPTCPVCPDRASPADLRTN [K13P]: the protein stability index was 3.74.

In the case of WEVQVSPTCHVCKDRASPADLRTN [P10H], the protein stability index is 2.81.

WEVQVSPTCQVCKDRASPADLRTN [P10Q]: the protein stability index was 3.01.

Take WEVQVSPTCVVCKDRASPADLRTN [P10V]: the protein stability index is 2.02.

Take WEVQVSPTCKVCKDRASPADLRTN [P10K]: the protein stability index stood at 2.79.

Regarding WEVQVSPTCSVCKDRASPADLRTN [P10S], the protein stability index is 3.32.

In the case of WEVQVSPTCMVCKDRASPADLRTN [P10M], the protein stability index worked out at 2.46.

As for WEVQVSPTCFVCKDRASPADLRTN [P10F], the protein stability index was 2.89.

In the case of WEVQVSPTCAVCKDRASPADLRTN [P10A], the protein stability index came out at 1.25.

With WEVQVSPTCTVCKDRASPADLRTN [P10T], the protein stability index was 2.38.

For WEVQVSPTCEVCKDRASPADLRTN [P10E], the protein stability index was 2.23.

WEVQVSPTCPVCKDRASPADLVTN [R22V]: the protein stability index is 3.75.

WEVQVSPTCPVCKDRASPADLYTN [R22Y]: the protein stability index turned out to be 2.49.

For WEVQVSPTCPVCKDRASPADLNTN [R22N], the protein stability index is 2.75.

For the variant WEVQVSPTCPVCKDRASPADLITN [R22I], the protein stability index amounted to 2.7.

In the case of WEVQVSPTCPVCKDRASPADLPTN [R22P], the protein stability index was determined as 3.74.

With WEVQVSPTCPVCKDRASPADLKTN [R22K], the protein stability index was determined as 3.34.

In the case of WEVQVSPTCPVCKDRASPADLQTN [R22Q], the protein stability index is 3.33.

As for WEVQVSPTCPVCKDRASPADLGTN [R22G], the protein stability index is 2.03.

For the variant WEVQVSPTCPVCKDRASPADLHTN [R22H], the protein stability index is 2.54.

For the variant WEVQVSPTCPVCKDRASPADLLTN [R22L], the protein stability index was 2.45.
